From US20090181018A1 (Eli Lilly, published 2009)
Positions count from the first letter of the chain named. Names and notes keep the numbering of the source. Values belong to the binder of their own block, whether it stands above or below them.

Assays:
[1] = target: T1, human des-acyl ghrelin (human); test: SPR (BIAcore 2000), Mab amine-coupled to CM5 chip, des-acyl ghrelin as analyte, about 25 C
T1 construct: also called unacylated human ghrelin
Method: (§1) Except where noted, all reagents and materials are purchased from BIAcore® AB (Uppsala, Sweden). All measurements are performed at about 25° C. All samples containing human ghrelin (full length, C-8 acylated or des-acyl) and anti-ghrelin Mabs are diluted in HBS-EP buffer (150 mM sodium chloride, 3 mM EDTA, 0.005% (w/v) surfactant P-20, and 10 mM HEPES, pH 7.4). For all of the Mabs, the antibody is directly coupled to a CM5 chip using the amine-coupling chemistry described below, aiming for a surface density of between 800-1000 response units (RU). Flow cells (1-4) are activated for 7 minutes with a 1:1 mixture of 0.1 M N-hydroxysuccinimide and 0.1 M 3-(N,N-dimethylamino)propyl-N-ethylcarbodiimide at a flow rate of 10 μl/min. The Mab is diluted to 10 μg/mL in 10 mM sodium acetate, pH 4.5, and manually injected over all four flow cells at a flow rate of 10 μl/min. The surface density is monitored, and additional capture antibody is injected as needed to each individual cell until all flow cells reach a surface density of 800-1000 RU. Surfaces are blocked with a seven minute injection of 1 M ethanolamine-HCl, pH 8.5(10 μl/min). To ensure complete removal of any noncovalently bound capture antibody, 15 μl of 10 mM glycine, pH 1.5, are injected twice. Running buffer for kinetic experiments is HBS-EP buffer (150 mM sodium chloride, 3 mM EDTA, 0.005% (w/v) surfactant P-20, and 10 mM HEPES, pH 7.4).
(§2) Collection of kinetic binding data is performed at maximum flow rate (100 μl/min) and a low surface density to minimize mass transport effects. Each analysis cycle consists of: (i) 200 μl injection (2 min.) of ghrelin (concentration range of 50 nM to 0.39 nM in 2-fold dilution increments) over all four flow cells with flow cell 1 as the reference flow cell; (ii) 20 min. dissociation (buffer only flow); (iii) regeneration of chip surface with a 15 sec injection of 10 mM glycine, pH 1.5; and (iv) a 2 min. stabilization time before the start of the next cycle. The signal is monitored as flow cell 2 minus flow cell 1, flow cell 3 minus flow cell 1, and flow cell 4 minus flow cell 1. Samples and a buffer blank are injected in duplicate in a random order. Data are processed using BIAevaluation v.4.1 software and data are fit to a 1:1 binding model in either BIAevaluation v.4.1 or CLAMP global analysis software.

[2] = target: T2, C-8 acylated human ghrelin (1-28) (human, n-octanoyl (C8) group on Ser3); test: SPR (BIAcore 2000), Mab amine-coupled to CM5 chip, ghrelin as analyte, about 25 C
T2 construct: 28-residue ghrelin, octanoylated at Ser3; the analyte in SPR and the agonist in the FLIPR assay; also called C8 acylated ghrelin; full length, C-8 acylated human ghrelin
Method: as §1, §2

[3] = target: T2, C-8 acylated human ghrelin (1-28); test: SPR (BIAcore 2000), Fab captured by goat anti-human kappa, ghrelin as analyte, about 25 C
Method: The affinity (KD) of humanized/optimized anti-ghrelin Fabs disclosed in Example 1 for C-8 acylated human ghrelin (1-28) is measured using a BIAcore™ 2000 instrument containing a CM5 sensor chip. Except where noted, all reagents and materials are purchased from BIAcore™ AB (Uppsala, Sweden). Measurements are performed at about 25° C. Samples containing human ghrelin are dissolved in HBS-EP buffer (150 mM sodium chloride, 3 mM EDTA, 0.005% (w/v) surfactant P-20, and 10 mM HEPES, pH 7.4). A capture antibody, goat anti-mouse Kappa (Southern Biotechnology, Inc.) for the D4 and D4 7.1 Fabs, and goat anti-human kappa (Jackson ImmunoResearch) for all other Fabs, hereafter termed “capture antibody,” is immobilized onto flow cells using amine-coupling chemistry. Flow cells (1-4) are activated for 7 minutes with a 1:1 mixture of 0.1 M N-hydroxysuccinimide and 0.1 M 3-(N,N-dimethylamino)propyl-N-ethylcarbodiimide at a flow rate of 10 μl/min. Goat anti-mouse Kappa or goat anti-human kappa (30 μg/mL in 10 mM sodium acetate, pH 4.5) is manually injected over all 4 flow cells at a flow rate of 10 μl/min. The surface density is monitored and additional capture antibody is injected if needed to individual cells until all flow cells reach a surface density of 4500-5000 response units (RU). Surfaces are blocked with a 7 minute injection of 1 M ethanolamine-HCl, pH 8.5 (10 μl/min). To ensure complete removal of any noncovalently bound capture antibody, 15 μl of 10 mM glycine, pH 1.5, is injected twice. Running buffer used for kinetic experiments contains 10 mM HEPES, pH 7.4, 150 mM NaCl, 0.005% P20.
Collection of kinetic binding data is performed at maximum flow rate (100 μl/min) and a low surface density to minimize mass transport effects. Each analysis cycle consists of: (i) capture of 300-350 RU of Fabs (BioSite) by injection of 5-10 μl of 5 μg/ml solution over flow cell 2, 3 and 4 for different Fabs at a flow rate of 10 μl/min., (ii) 200 μl injection (2 min.) of human ghrelin (concentration range of 50 nM to 0.39 nM in 2-fold dilution increments) over all 4 flow cells with flow cell 1 as the reference flow cell, (iii) 20 min. dissociation (buffer flow), (iv) regeneration of capture antibody surface with a 15 seq injection of 10 mM glycine, pH 1.5, (v) a 30 sec blank injection of running buffer, and (vi) a 2 min. stabilization time before the start of the next cycle.

[4] = target: T2, C-8 acylated human ghrelin (1-28); test: SPR (BIAcore 2000), half-life of the complex
Method: The affinity (KD) of humanized/optimized anti-ghrelin Fabs disclosed in Example 1 for C-8 acylated human ghrelin (1-28) is measured using a BIAcore™ 2000 instrument containing a CM5 sensor chip. Except where noted, all reagents and materials are purchased from BIAcore™ AB (Uppsala, Sweden). Measurements are performed at about 25° C. Samples containing human ghrelin are dissolved in HBS-EP buffer (150 mM sodium chloride, 3 mM EDTA, 0.005% (w/v) surfactant P-20, and 10 mM HEPES, pH 7.4). A capture antibody, goat anti-mouse Kappa (Southern Biotechnology, Inc.) for the D4 and D4 7.1 Fabs, and goat anti-human kappa (Jackson ImmunoResearch) for all other Fabs, hereafter termed “capture antibody,” is immobilized onto flow cells using amine-coupling chemistry. Flow cells (1-4) are activated for 7 minutes with a 1:1 mixture of 0.1 M N-hydroxysuccinimide and 0.1 M 3-(N,N-dimethylamino)propyl-N-ethylcarbodiimide at a flow rate of 10 μl/min. Goat anti-mouse Kappa or goat anti-human kappa (30 μg/mL in 10 mM sodium acetate, pH 4.5) is manually injected over all 4 flow cells at a flow rate of 10 μl/min. The surface density is monitored and additional capture antibody is injected if needed to individual cells until all flow cells reach a surface density of 4500-5000 response units (RU). Surfaces are blocked with a 7 minute injection of 1 M ethanolamine-HCl, pH 8.5 (10 μl/min). […]

[5] = target: T2, C-8 acylated human ghrelin (1-28); test: SPR (BIAcore 2000), half-life of the complex calculated from koff
Method: as §1, with “Surfaces are blocked with a seven minute injection of 1 M ethanolamine-HCl, pH 8.5(10 μl/min). To ensure complete removal of any noncovalently bound capture antibody, 15 μl of 10 mM glycine, pH 1.5, are injected twice. Running buffer for kinetic experiments is HBS-EP buffer (150 mM sodium chloride, 3 mM EDTA, 0.005% (w/v) surfactant P-20, and 10 mM HEPES, pH 7.4).” left out
Collection of kinetic binding data is performed at maximum flow rate (100 μl/min) and a low surface density to minimize mass transport effects. […] The signal is monitored as flow cell 2 minus flow cell 1, flow cell 3 minus flow cell 1, and flow cell 4 minus flow cell 1. […]

[6] = target: T2, C-8 acylated human ghrelin (1-28); test: cell-based or functional assay

T1 sequence (peptide, as listed by the source): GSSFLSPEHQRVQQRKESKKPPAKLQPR

B1: Mab D52N (antibody, rat IgG1, V domains shown)
VH: QVQLVQSGAEVKKPGASVKVSCKVSGYTFTSTWMHWVRQAPGKGLEWMGYINPSTGYTEYTQKFKDRVTMTEDTSTDTAYMELSSLRSEDTAVYYCATDGYDEDYWGQGTTVTVSS
VL: DIVMTQSPLSLPVTPGEPASISCRSSDSLGHSSGHTYLSWYLQKPGQSPGLLIYKVSNRFDGVPDRFSGSGSGTDFTLKISRVEAEDVGVYYCSQSTLVPWTFGQGTKLEIKD
Kd [1]: 1.05 nM
koff [1]: 0.0343 s⁻¹
kon [1]: 3.26e+07 M⁻¹ s⁻¹

B2: Mab A4 (antibody, V domains shown)
VH: B1 VH with N52D, E103F
VL: B1 VL with S33T, H35F
kon [1]: 4.56e+06 M⁻¹ s⁻¹
Kd [2]: 0.074 nM
kon [2]: 4.44e+06 M⁻¹ s⁻¹

B3: Fab S28D (Fab, V domains shown)
VH: B1 VH with N52D
VL: DIVMTQSPLSLPVTPGEPASISCRSSDSLGHSDGNTYLSWYLQKPGQSPGLLIYKVSNRFDGVPDRFSGSGSGTDFTLKISRVEAEDVGVYYCSQSTLVPWTFGQGTKLEIK
notes: The Fab was captured by goat anti-human kappa
kon [3]: 3e+07 M⁻¹ s⁻¹

B4: Fab A2 (Fab, V domains shown)
VH: B1 VH with N52D, E103F
VL: B3 VL with D33T, N35F
notes: The Fab was captured by goat anti-human kappa, so it has a human kappa light chain
t1/2 [4]: 43 min
Kd [3]: 0.043 nM
koff [3]: 0.00027 s⁻¹
kon [3]: 6.34e+06 M⁻¹ s⁻¹

B5: Fab T32Y (Fab, V domains shown)
VH: B1 VH with T32Y, N52D
VL: B3 VL with D33S, N35H
notes: as for B3
t1/2 [4]: 1 min
Kd [3]: 1 nM
koff [3]: 0.00875 s⁻¹

Now from value to binder:

koff [1]: 6.67e-05 s⁻¹
t1/2 [5]: 201 min
koff [2]: 5.74e-05 s⁻¹
B6: Mab A5 (antibody, rat IgG1, V domains shown)
VH: B1 VH with N52D, E103Y
VL: B1 VL with S28H, S33T, H35Y

IC50, in vitro FLIPR calcium assay (intracellular calcium in AV12 cells expressing GHS-R1a) [6]: 1.12 nM
Kd [1]: 0.176 nM
B7: Mab D27Q (antibody, rat IgG1, V domains shown)
VH: B1 VH with N52D
VL: B1 VL with D27Q

t1/2 [5]: 1 min
Kd [2]: 0.4 nM
koff [2]: 0.0169 s⁻¹
kon [2]: 4.24e+07 M⁻¹ s⁻¹
B8: Mab S34H (antibody, rat IgG1, V domains shown)
VH: B1 VH with N52D
VL: B1 VL with S39H
